Consider one molecule from paper PMC10897489 (2024).

Usually Kd stands for the equilibrium constant for the complex coming apart.

The target of the test is reported 23mer NSP3 peptide from alphaviruses. As to the kind of experiment: ITC.

B1: FXR1 1–122 (domain or fragment)
chain: not shown
In the case of B1, the affinity, expressed as Kd, was 19.4 µM.
